From patent US20230302148A1, “PHARMACEUTICAL COMPOSITION COMPRISING LONG-ACTING CONJUGATE OF TRIPLE GLUCAGON/GLP-1/GIP RECEPTOR AGONIST” (HANMI PHARM. CO., LTD., priority 2020, published 2023)
Bridges are numbered along the chain shown (N, C = ends). Where no end group is shown, it is not given here. [ ]: non-standard residue; d: D form. The star is where a group is joined. Acetyl(2-(4-imidazolyl)) = O=C(Cc1c[nH]cn1)*; Aib = CC(C)(N)C(=O)O

T1: human GIP receptor (human, UniProt P48546 22-466)
T1 sequence (looked up): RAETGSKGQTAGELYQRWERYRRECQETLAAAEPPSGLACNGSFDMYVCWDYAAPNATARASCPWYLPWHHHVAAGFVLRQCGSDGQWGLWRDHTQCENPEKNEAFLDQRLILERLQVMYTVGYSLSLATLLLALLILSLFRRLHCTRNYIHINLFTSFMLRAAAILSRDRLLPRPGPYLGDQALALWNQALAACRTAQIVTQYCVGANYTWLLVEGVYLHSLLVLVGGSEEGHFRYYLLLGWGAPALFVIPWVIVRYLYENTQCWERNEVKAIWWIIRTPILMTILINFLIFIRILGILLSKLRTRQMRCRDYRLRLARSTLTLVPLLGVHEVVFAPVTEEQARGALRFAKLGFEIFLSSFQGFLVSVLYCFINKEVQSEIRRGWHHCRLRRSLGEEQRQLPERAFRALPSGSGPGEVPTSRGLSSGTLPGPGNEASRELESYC


Tests used:
Assay in all cases: cell-based or functional assay
[1] = biological target: human GLP-1 receptor (human, UniProt P43220 24-463)
[2] = biological target: human GCG receptor (human, UniProt P47871 26-477)
[3] = biological target: T1, human GIP receptor

human GCG receptor, sequence (P47871 26-477): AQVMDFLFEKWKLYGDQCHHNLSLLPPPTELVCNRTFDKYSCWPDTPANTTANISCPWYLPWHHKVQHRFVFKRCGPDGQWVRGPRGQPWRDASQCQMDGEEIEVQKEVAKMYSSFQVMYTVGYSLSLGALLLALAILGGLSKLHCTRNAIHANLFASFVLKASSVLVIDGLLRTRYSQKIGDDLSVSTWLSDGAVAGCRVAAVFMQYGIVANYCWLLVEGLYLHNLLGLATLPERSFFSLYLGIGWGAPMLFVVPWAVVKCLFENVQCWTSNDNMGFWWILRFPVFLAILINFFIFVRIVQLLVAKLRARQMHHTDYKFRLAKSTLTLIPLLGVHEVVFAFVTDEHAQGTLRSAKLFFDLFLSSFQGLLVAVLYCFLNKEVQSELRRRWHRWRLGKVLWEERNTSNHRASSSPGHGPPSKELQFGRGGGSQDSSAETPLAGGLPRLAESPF

| Binder | In vitro activity relative to native peptide (%) vs. GLP-1 [1] [%] | In vitro activity relative to native peptide (%) vs. Glucagon [2] [%] | In vitro activity relative to native peptide (%) vs. GIP [3] [%] |
| --- | --- | --- | --- |
| [Acetyl(2-(4-imidazolyl))]GQGTFTSDLSKQMDEERAREFIEWLLAQKPSSGAPPPSHG [triple agonist of SEQ ID NO: 17] | 0.2 | < 0.1 | < 0.1 |
| {Acetyl(2-(4-imidazolyl))}-[Aib]QGTFTSDYSKYLDEKRQKEFVNWLLAQC (bridge 15-19) [triple agonist of SEQ ID NO: 86] | 28.4 | 0.4 | 0.2 |
| Y[Aib]QGTFTSDYSKALDEKAAKEFVQWLLDQHPSSGQPPPSC (bridge 16-20) [triple agonist of SEQ ID NO: 100] | 42.2 | 12.7 | 118 |
| [Acetyl(2-(4-imidazolyl))]GQGTFTSDLSKQMDSERAREFIEWLKNTGPSSGAPPPSHG [triple agonist of SEQ ID NO: 18] | < 0.1 | < 0.1 | < 0.1 |
| Y[Aib]QGTFTSDYSKALDEKAAKEFVNWLLDHHPSSGQPPPSC (bridge 16-20) [triple agonist of SEQ ID NO: 98] | 28.1 | 8.2 | 47.1 |
| [Acetyl(2-(4-imidazolyl))]GQGTFTSDLSIQYEEEAQQDFVEWLKDTGPSSGAPPPSHG [triple agonist of SEQ ID NO: 20] | < 0.1 | < 0.1 | < 0.1 |
| Y[Aib]QGTFTSDYSKYLDECRAKEFVQWLLDHHPSSGQPPPS (bridge 16-20) [triple agonist of SEQ ID NO: 21] | 17.8 | 267 | 22.7 |
| [Acetyl(2-(4-imidazolyl))]GQGTFTSDLSKQMDSEAQQLFIEWLKNGGPSSGAPPPSHG [triple agonist of SEQ ID NO: 16] | 2.1 | < 0.1 | < 0.1 |
| [Acetyl(2-(4-imidazolyl))]GQGTFTSDLSIQYDSEHQRDFIEWLKDTGPSSGAPPPSHG [triple agonist of SEQ ID NO: 19] | < 0.1 | < 0.1 | < 0.1 |
| [Acetyl(2-(4-imidazolyl))]GEGTFTSDLSKYLDSRRQQLFVQWLKAGGPSSGAPPPSHG [triple agonist of SEQ ID NO: 11] | 1.4 | < 0.1 | < 0.1 |
| {Acetyl(2-(4-imidazolyl))}-[Aib]QGTFTSDYSIAMDEIHQKDFVNWLLNTKC (bridge 15-19) [triple agonist of SEQ ID NO: 94] | 0.5 | < 0.1 | < 0.1 |
| Y[Aib]QGTFTSDYSKYLDEKRAKEFVQWLLDHCPSSGQPPPS (bridge 16-20) [triple agonist of SEQ ID NO: 96] | 34.4 | 195 | 5.2 |
| [Acetyl(2-(4-imidazolyl))]GQGTFTSDYSIQLDEIAVRDFVEWLKNGGPSSGAPPPSHG [triple agonist of SEQ ID NO: 14] | 28 | < 0.1 | < 0.1 |
| Y[Aib]QGTFTSDYSKYLDECRAKEFVQWLLAQKGKKNDWKHNIT (bridge 16-20) [triple agonist of SEQ ID NO: 23] | 4.01 | 9.3 | < 0.1 |
